Experiments:
DAXX, Q9UER7-1 [1] = target: DAXX, Q9UER7-1
asf1b_human ASF1B = asf1b_human ASF1B (UniProt Q9NVP2)
caf1a_human CHAF1A = caf1a_human CHAF1A (UniProt Q13111)
DAXX, Q9UER7-1 [2] = target: DAXX, Q9UER7-1; remark: listed apart in the source

Sequence of DAXX, Q9UER7-1 (Q9UER7 whole entry): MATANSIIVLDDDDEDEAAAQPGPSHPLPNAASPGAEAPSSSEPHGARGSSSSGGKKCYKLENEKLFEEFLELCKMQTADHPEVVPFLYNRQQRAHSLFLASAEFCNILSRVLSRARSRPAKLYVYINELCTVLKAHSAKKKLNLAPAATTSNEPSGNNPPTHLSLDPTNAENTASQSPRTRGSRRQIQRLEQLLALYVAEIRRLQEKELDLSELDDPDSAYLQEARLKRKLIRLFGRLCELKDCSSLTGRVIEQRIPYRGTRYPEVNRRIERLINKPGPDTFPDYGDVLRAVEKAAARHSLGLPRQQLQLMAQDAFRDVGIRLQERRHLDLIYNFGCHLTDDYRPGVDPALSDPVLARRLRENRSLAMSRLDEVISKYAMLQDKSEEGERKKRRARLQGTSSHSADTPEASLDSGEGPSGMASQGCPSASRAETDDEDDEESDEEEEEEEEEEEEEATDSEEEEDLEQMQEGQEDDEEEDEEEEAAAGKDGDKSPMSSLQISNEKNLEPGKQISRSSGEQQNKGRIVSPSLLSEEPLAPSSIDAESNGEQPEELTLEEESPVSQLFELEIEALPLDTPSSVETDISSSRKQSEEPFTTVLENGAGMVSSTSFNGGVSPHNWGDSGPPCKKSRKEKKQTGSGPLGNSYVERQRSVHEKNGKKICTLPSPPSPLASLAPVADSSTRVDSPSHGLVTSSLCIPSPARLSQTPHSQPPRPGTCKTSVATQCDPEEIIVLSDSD
Sequence of asf1b_human ASF1B (Q9NVP2 whole entry): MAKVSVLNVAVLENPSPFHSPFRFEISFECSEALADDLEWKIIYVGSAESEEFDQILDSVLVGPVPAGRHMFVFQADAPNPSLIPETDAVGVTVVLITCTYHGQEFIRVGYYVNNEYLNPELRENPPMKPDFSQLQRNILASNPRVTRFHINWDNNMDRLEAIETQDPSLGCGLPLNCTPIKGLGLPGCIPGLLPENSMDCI
Sequence of caf1a_human CHAF1A (Q13111 whole entry): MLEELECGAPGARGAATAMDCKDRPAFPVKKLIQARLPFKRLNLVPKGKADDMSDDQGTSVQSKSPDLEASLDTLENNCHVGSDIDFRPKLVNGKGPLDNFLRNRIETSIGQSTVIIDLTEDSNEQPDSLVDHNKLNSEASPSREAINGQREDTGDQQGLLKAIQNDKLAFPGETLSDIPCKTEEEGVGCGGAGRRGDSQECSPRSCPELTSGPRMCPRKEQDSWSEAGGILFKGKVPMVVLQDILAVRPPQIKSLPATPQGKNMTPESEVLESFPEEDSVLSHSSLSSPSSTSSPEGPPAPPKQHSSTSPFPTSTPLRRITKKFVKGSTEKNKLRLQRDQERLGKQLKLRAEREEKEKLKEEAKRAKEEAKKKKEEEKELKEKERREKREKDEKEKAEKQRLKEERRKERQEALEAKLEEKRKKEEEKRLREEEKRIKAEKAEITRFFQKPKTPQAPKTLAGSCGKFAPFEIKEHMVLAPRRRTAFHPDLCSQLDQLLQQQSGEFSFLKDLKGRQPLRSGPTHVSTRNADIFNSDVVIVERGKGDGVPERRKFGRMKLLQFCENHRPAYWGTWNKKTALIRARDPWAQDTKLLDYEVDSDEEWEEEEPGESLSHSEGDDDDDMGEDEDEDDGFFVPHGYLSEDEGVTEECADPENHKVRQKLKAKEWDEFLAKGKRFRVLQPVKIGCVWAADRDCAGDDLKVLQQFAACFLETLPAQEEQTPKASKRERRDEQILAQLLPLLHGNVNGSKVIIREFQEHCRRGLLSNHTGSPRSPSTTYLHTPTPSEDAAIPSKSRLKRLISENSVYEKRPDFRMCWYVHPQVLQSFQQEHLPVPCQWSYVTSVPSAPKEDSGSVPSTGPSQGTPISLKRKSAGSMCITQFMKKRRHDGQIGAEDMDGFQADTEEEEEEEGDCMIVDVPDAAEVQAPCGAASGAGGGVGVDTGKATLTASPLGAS

For “Histone H3.2 (Homo sapiens) (from UniProt Q71DI3) M91G”, the “effect of a mutation on the interaction” value (DAXX, Q9UER7-1 [1]) was “increasing interaction strength”.
“Histone H3.3 (Homo sapiens) (from UniProt P84243) C111E” was tested, and the “effect of a mutation on the interaction” value (asf1b_human ASF1B) was “disrupting interaction strength”.
In the case of “Histone H3.3 (Homo sapiens) (from UniProt P84243) G91M”, the “effect of a mutation on the interaction” value (caf1a_human CHAF1A) is reported as “increasing interaction strength” and the “effect of a mutation on the interaction” value (DAXX, Q9UER7-1 [2]) is reported as “decreasing interaction strength”.
